According to US20170267768A1 (University of California, published 2017):
Positions count from the first letter of the chain named.

B1: scFv-3C (scFv)
scFv: QVQLVQSGGGLVQPGGSLRLSCAASGFTFSSYAMHWVRQAPGKGLEWVTVISPDGHNTYYADSVKGRFTISRDNSKNTLYLQMNSLRAEDTAVYYCARASVGATGPFDIWGQGTLVTVSSASTGGGGSGGGGSGGGGSGGGGSSSELTQPPSVSVAPGQTVTITCQGDSLRSYYASWYQQKPGTAPKLLIYGENNRPSGVPDRFSGSSSGTSASLTITGAQAEDEADYYCNSRDSSGTHLTVFGGGTKLTVLGGGSGGC
notes: also called clone 3
B2: scFv-2C (scFv)
scFv: B1 scFv with T49S, D54A, H56R, T58K
notes: also called clone 2
B3: scFv-19C (scFv)
scFv: B1 scFv with T49S, D54P
B4: scFv-16C (scFv)
scFv: B1 scFv with T49S, P53N, D54N
B5: scFv-8C (scFv)
scFv: B1 scFv with D54S
notes: also called clone 8
B6: scFv-9C (scFv)
scFv: B1 scFv with D54N
notes: also called clone 9
B7: scFv-7C (scFv)
scFv: B1 scFv with T49S, D54A, H56P
notes: also called clone 7
B8: scFv-11C (scFv)
scFv: B1 scFv with T49A, P53H, D54H, H56S
notes: also called clone 11
B9: scFv-10C (scFv)
scFv: B1 scFv with T49S, V50A, D54P
notes: also called clone 10
B10: scFv-13C (scFv)
scFv: B1 scFv with D54T, H56A
notes: also called clone 13
B11: scFv-4C (scFv)
scFv: B1 scFv with D54H, H56R, T58K
notes: also called clone 4
B12: scFv-20 (scFv)
scFv: QVQLVQSGGGLVQPGGSLRLSCAASGFTFSSYAMHWVRQAPGKGLEWVTVISHDGTNTYYADSVKGRFTISRDNSKNTLYLQMNSLRAEDTAVYYCARASVGATGPFDIWGQGTLVTVSSASTGGGGSGGGGSGGGGSGGGGSSSELTQPPSVSVAPGQTVTITCQGDSLRSYYASWYQQKPGTAPKLLIYGENNRPSGVPDRFSGSSSGTSASLTITGAQAEDEADYYCNSRDSSGTHLTVFGGGTKLTVLG
B13: scFv-3 (scFv)
scFv: B12 scFv with H53P, T56H
B14: scFv-22 (scFv)
scFv: B12 scFv with H53P, D54G, T56P, T58K
B15: scFv-21 (scFv)
scFv: B12 scFv with H53R, D54H, T56N, T58K

These binders were tested against T1, His6-tagged recombinant human EphA2 protein (human, UniProt P29317 25-534) (assay: BLI (Octet Red 96); His6-EphA2 on anti-His sensors; scFv-PEG-DSPE conjugate at 4.0 ug/ml after thermal stress).
T1 construct: also called his-tagged recombinant, human EphA2; human EphA2 with c-terminal His6
T1 sequence (P29317 25-534 limits assumed): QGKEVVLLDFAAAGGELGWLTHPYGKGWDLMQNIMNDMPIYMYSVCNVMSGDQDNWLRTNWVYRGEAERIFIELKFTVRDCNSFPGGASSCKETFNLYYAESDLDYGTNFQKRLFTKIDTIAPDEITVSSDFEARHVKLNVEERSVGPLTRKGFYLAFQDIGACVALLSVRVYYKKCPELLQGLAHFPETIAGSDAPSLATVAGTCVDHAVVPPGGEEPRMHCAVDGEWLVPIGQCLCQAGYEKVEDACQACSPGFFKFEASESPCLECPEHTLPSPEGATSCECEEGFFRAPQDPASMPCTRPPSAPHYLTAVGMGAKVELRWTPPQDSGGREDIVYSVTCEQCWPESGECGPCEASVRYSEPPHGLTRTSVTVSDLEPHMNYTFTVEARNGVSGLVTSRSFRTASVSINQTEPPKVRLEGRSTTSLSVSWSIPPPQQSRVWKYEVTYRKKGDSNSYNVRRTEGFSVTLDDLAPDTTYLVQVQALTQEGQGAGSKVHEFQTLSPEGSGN
Excerpt: (§1) A nucleic acid encoding human EphA2 with c-terminal His6 appended was cloned into expression vector pCEP4 (Invitrogen® # V044-50) and transiently expressed in FreeStyle™ 293 cells (Invitrogen® #K900001) following polyethylenenimine transfection. The His6-tagged recombinant human EphA2 protein was purified from the cell culture medium using Ni-NTA Sepharose™ resin (Quiagen®, USA). Anti-His sensors for the fortéBIO® Octet Red 96 system (fortéBIO®-Pall® #18-5116) were coated with his-tagged recombinant, human EphA2 at concentration of 10 μg/ml protein for 300 sec, and a background run was carried out in PBS for 60 sec. For scFv-PEG-DSPE conjugates, the sensors were then incubated with 2.5 μg/ml (Study 1) or 4.0 μg/ml (Study 2) of the conjugate in PBS, pH 7.4, and the slopes of association curves were determined between 3-13 seconds of incubation, corrected for the buffer-only background, and compared across the variants. ScFv-linked liposomes were incubated with the sensors in PBS at 0.025 mM of liposome phospholipid, the slopes of the association curves were determined between 3-20 seconds of incubation, corrected for the buffer-only background, and compared across the variants.
(§2) Results are shown below in Table 6, in which column A gives scFv identifiers; column B indicates percent yield of scFv/lipopolymer linker conjugates; column C gives percent scFv-conjugate (not liposome-bound) EphA2 binding on-rate; column D gives percent scFv-conjugated-liposome EphA2 binding on-rate; and columns E (Study 1) and F (study 2) give percent antigen binding on-rate remaining in the scFv-conjugate (not liposome-bound) following thermal stress.

First: B1
Second: B2
The “percent antigen binding on-rate remaining in the scFv-conjugate following thermal stress (Study 2)” value of the first is higher: 46.9% for the first, 26.9% for the second.

Going from B3 to B4, the “percent antigen binding on-rate remaining in the scFv-conjugate following thermal stress (Study 2)” value falls from 5.1% to 4.6%.

First: B5
Second: B6
The “percent antigen binding on-rate remaining in the scFv-conjugate following thermal stress (Study 2)” value of the first is lower: 7.3% for the first, 12.2% for the second.

First: B7
Second: B8
The “percent antigen binding on-rate remaining in the scFv-conjugate following thermal stress (Study 2)” value of the first is higher: 4.8% for the first, -0.09% for the second.

First: B9
Second: B10
The “percent antigen binding on-rate remaining in the scFv-conjugate following thermal stress (Study 2)” value of the first is higher: 98.8% for the first, 9% for the second.

B11 was tested, and the “percent antigen binding on-rate remaining in the scFv-conjugate following thermal stress (Study 2)” value was 5.6%.

The binders below were run against Staphylococcus aureus Protein A (Staphylococcus aureus, UniProt P38507 37-477) (assay: Protein A binding measured as in Example 1, compared to TS1C).
Procedure: Protein A binding for multiple samples was determined as follows: scFvs expressed by mammalian cells were obtained from cultures by centrifugation at 4000 g for 15 minutes to remove cells. The scFv titer in the supernatant was determined using Fortebio. Protein A binding was assayed using a 96 well Protein A plate (Protein A 96 well protein purification plate (GE Healthcare: Life Sciences, Protein A HP MultiTrap®) which contains Protein A-conjugated resin in wells with porous bottoms, allowing liquid in the wells to be collected from underneath via centrifugation or suction. Each well of the plate was washed with 1×PBS, and supernatant containing 250 μg of protein was loaded into each well. The supernatant is then separated from the Protein A resin using a vacuum manifold (Whatman®) with 10 mbar of pressure and the flow-through from each well separately collected into empty wells of a standard 96 well plate. The wells of the Protein A plate were then washed with 600 μL of 1×PBS (pH 7.6). To elute the resin-bound Ab, 200 μL of 0.1M acetic acid was added to each well and incubated at room temperature for 3-10 minutes. The plate was placed over a second plate to capture eluate and centrifuged at 100×g for 2 minutes, and 20 μL of 1M Tris, pH 8.0 was added to neutralize the Abs in the eluate. To determine the percentage of Protein A binding, the concentration of scFv remaining in the flow-through was compared to the amount of protein (250 ug) loaded originally.
The fold improvement in Protein A binding capacity (as compared to TS1C) was measured as described in Example 1.

Going from B1 to B2, the “Fold Improvement in Protein A Binding Capacity” value (shortened to “Fold Improvement”) falls from 6 fold to 5.5 fold.

Going from B7 to B8, the “Fold Improvement” value falls from 10.3 fold to 8.5 fold.

Going from B9 to B11, the “Fold Improvement” value falls from 12.3 fold to 5.8 fold.

Each binder was assayed against T1, His6-tagged recombinant human EphA2 … (assay: BLI (Octet Red 96); His6-EphA2 on anti-His sensors; slope of association curve of scFv-PEG-DSPE conjugate; TS1C printed as 100).
Excerpt: as §1, §2

First: B1
Second: B2
The “percent scFv-conjugate (not liposome-bound) EphA2 binding on-rate” value of the first is higher: 112% for the first, 105% for the second.

First: B3
Second: B4
The “percent scFv-conjugate (not liposome-bound) EphA2 binding on-rate” value of the first is lower: 112% for the first, 128% for the second.

Compared with B5, B6 is higher in “percent scFv-conjugate (not liposome-bound) EphA2 binding on-rate” value: 113% for the first, 114% for the second.

First: B7
Second: B8
The “percent scFv-conjugate (not liposome-bound) EphA2 binding on-rate” value of the first is higher: 110% for the first, 109% for the second.

First: B9
Second: B10
The “percent scFv-conjugate (not liposome-bound) EphA2 binding on-rate” value of the first is lower: 104% for the first, 105% for the second.

In the case of B11, the “percent scFv-conjugate (not liposome-bound) EphA2 binding on-rate” value is reported as 97.3%.

These binders were tested against T1, His6-tagged recombinant human EphA2 … (assay: BLI (Octet Red 96); His6-EphA2 on anti-His sensors; scFv-PEG-DSPE conjugate at 2.5 ug/ml after thermal stress).
Excerpt: as §1, §2

Compared with B1, B2 is lower in “percent antigen binding on-rate remaining in the scFv-conjugate following thermal stress (Study 1)” value: 56.5% for the first, 44.6% for the second.

Compared with B5, B6 is higher in “percent antigen binding on-rate remaining in the scFv-conjugate following thermal stress (Study 1)” value: 19.8% for the first, 25.2% for the second.

First: B7
Second: B8
The “percent antigen binding on-rate remaining in the scFv-conjugate following thermal stress (Study 1)” value of the first is higher: 5.8% for the first, 1.6% for the second.

Going from B9 to B10, the “percent antigen binding on-rate remaining in the scFv-conjugate following thermal stress (Study 1)” value falls from 88.9% to 18.2%.

In the case of B11, the “percent antigen binding on-rate remaining in the scFv-conjugate following thermal stress (Study 1)” value is reported as 8.6%.

These binders were tested against T1, His6-tagged recombinant human EphA2 … (assay: BLI (Octet Red 96); His6-EphA2 on anti-His sensors; slope of association curve of scFv-linked liposomes at 0.025 mM phospholipid; TS1C printed as 100).
Excerpt: as §1, §2

Going from B1 to B2, the “percent scFv-conjugated-liposome EphA2 binding on-rate” value falls from 119% to 117%.

Compared with B3, B4 is lower in “percent scFv-conjugated-liposome EphA2 binding on-rate” value: 129% for the first, 113% for the second.

First: B5
Second: B6
The “percent scFv-conjugated-liposome EphA2 binding on-rate” value of the first is higher: 133% for the first, 118% for the second.

Going from B7 to B8, the “percent scFv-conjugated-liposome EphA2 binding on-rate” value rises from 119% to 120%.

Going from B9 to B10, the “percent scFv-conjugated-liposome EphA2 binding on-rate” value rises from 110% to 120%.

B11 was tested, and the “percent scFv-conjugated-liposome EphA2 binding on-rate” value was 118%.

Each binder was assayed against T2, human EphA2 on OVCAR-3 and U-251 cells (human, UniProt P29317 24-976) (assay: CLIA: scFv-decorated fluorescent NTA(Ni) liposomes on EphA2-expressing cells, FACS).
T2 construct: whole, on cells; also called EphA2 receptors
T2 sequence (P29317 24-976): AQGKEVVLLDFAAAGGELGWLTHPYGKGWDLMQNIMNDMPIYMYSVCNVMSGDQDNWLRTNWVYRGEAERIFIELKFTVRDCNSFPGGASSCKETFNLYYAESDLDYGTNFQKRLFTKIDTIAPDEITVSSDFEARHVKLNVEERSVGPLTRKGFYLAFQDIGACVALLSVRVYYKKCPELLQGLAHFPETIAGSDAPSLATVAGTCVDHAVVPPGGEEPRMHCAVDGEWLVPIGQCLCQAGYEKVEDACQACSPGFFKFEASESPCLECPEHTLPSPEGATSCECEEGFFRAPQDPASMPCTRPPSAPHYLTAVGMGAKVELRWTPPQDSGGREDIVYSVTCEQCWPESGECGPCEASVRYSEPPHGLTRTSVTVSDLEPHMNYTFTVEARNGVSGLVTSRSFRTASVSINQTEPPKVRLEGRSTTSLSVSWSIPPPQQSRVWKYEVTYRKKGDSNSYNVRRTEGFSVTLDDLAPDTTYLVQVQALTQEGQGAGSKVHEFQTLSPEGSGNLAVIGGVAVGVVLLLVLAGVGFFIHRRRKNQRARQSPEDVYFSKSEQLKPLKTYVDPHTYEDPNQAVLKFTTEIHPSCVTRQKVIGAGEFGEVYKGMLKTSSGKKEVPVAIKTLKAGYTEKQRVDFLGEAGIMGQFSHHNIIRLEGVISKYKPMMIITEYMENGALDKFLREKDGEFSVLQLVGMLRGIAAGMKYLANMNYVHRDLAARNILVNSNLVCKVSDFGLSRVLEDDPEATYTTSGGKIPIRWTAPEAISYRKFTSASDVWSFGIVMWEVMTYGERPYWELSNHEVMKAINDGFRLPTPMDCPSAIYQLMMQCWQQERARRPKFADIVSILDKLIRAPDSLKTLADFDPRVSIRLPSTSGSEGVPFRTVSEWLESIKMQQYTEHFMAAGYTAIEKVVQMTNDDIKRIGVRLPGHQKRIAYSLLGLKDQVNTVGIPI
Procedure: To test the anti-EphA2 activity of these variant scFvs, the binding and internalization of liposomes externally decorated with these Abs was assayed on cell lines expressing EphA2. A rapid high-throughput Chelated Ligand-induced Internalization Assay (CLIA) (Nielsen et al., BMC immunology, 2006, 7:24) was used to screen anti-EphA2-scFv-targeted liposomes for binding and internalization assessment. Two cell lines that express high levels of EphA2 receptors, OVCAR-3 and U-251, were tested, as well as a murine EphA2-expressing mouse cell line, CT-26 (to test whether cross-reactivity to murine EphA2 was retained by the engineered scFvs). Via nickel-binding by each scFv's c-terminal His6 tag, the scFvs were bound to fluorescently labeled liposomes comprising an NTA(Ni) conjugated lipid (Dil5-NTA liposomes).
Dil5-NTA liposomes were prepared as follows. The NTA conjugated lipid, DOD-Tri-NTA, was synthesized as described in Huang et al., Bioconjugate chemistry, 2006, vol. 17, p. 1592-1600. Hydrogenated soy phosphatidylcholine (HSPC), cholesterol, methoxy-PEG(2000)-distearoylphosphatidylethanolamine (PEG-DSPE), DOD-tri-NTA, and a fluorescent lipid dye, Dil5, (ThermoFisher® Invitrogen® Molecular Probes™, cat. # D12370) were combined in a chloroform solution at the molar ratio of 100:66.7:5:0.5:0.3 respectively and the solution evaporated under vacuum to dryness forming a lipid film. The film was hydrated in HEPES-buffered physiological saline (“HBS-6.5”—5 mM HEPES, 144 mM NaCl pH 6.5) at 68° C., the resulting lipid suspension was subjected to several cycles of freezing (dry ice-acetone) and thawing (68C), and extruded through two stacked polycarbonate membranes (Whatman Nuclepore, USA) with the pore size of 200 nm (6 times) and 100 nm (10 times) using Lipex™ thermobarrel extruder (Northern Lipids, Canada). This protocol typically produces unilamellar vesicles with the z-average size of 100-110 nm and polydispersity index less than 0.1. The extruded liposomes were chilled to room temperature, purified by gel-chromatography on a Sephadex® G-75 (GE Healthcare) column eluted with HBS-6.5, and then sterilized by passage through a 0.2-μm filter. The concentration of liposomal phospholipid was then determined after acid digestion using spectrophotometric phosphomolybdate method.

B12: binds.
B13: binds.
B14: binds.
B15: binds.
